IntAct's records for PubMed 17875927

B1: CBL-interacting serine/threonine-protein kinase 24 (Arabidopsis thaliana (Mouse-ear cress)), Q9LDI3 (parent)
chain: MTKKMRRVGKYEVGRTIGEGTFAKVKFARNTDTGDNVAIKIMAKSTILKNRMVDQIKREISIMKIVRHPNIVRLYEVLASPSKIYIVLEFVTGGELFDRIVHKGRLEESESRKYFQQLVDAVAHCHCKGVYHRDLKPENLLLDTNGNLKVSDFGLSALPQEGVELLRTTCGTPNYVAPEVLSGQGYDGSAADIWSCGVILFVILAGYLPFSETDLPGLYRKINAAEFSCPPWFSAEVKFLIHRILDPNPKTRIQIQGIKKDPWFRLNYVPIRAREEEEVNLDDIRAVFDGIEGSYVAENVERNDEGPLMMNAFEMITLSQGLNLSALFDRRQDFVKRQTRFVSRREPSEIIANIEAVANSMGFKSHTRNFKTRLEGLSSIKAGQLAVVIEIYEVAPSLFMVDVRKAAGETLEYHKFYKKLCSKLENIIWRATEGIPKSEILRTITF

Variants of: B1
Details: with vatb1_arath VHA-B1, P11574
Chain of vatb1_arath VHA-B1, P11574 (P11574 whole entry): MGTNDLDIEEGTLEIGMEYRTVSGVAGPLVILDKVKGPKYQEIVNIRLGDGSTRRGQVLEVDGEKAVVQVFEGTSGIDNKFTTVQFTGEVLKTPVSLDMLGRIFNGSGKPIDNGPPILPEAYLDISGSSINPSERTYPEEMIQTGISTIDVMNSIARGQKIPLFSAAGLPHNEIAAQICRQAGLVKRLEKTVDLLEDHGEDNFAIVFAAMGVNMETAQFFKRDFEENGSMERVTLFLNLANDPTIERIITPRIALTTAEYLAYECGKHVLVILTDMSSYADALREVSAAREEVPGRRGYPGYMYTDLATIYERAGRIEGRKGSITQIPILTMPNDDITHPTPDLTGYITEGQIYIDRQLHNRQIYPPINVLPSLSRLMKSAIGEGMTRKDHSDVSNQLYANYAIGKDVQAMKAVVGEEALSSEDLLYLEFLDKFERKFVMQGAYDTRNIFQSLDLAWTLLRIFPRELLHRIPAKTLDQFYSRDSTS

Variant	effect of a mutation on the interaction
MTKKMRRVGKYEVGRTIGEGTFAKVKFARNTDTGDNVAINIMAKSTILKNRMVDQIKREISIMKIVRHPNIVRLYEVLASPSKIYIVLEFVTGGELFDRIVHKGRLEESESRKYFQQLVDAVAHCHCKGVYHRDLKPENLLLDTNGNLKVSDFGLSALPQEGVELLRTTCGTPNYVAPEVLSGQGYDGSAADIWSCGVILFVILAGYLPFSETDLPGLYRKINAAEFSCPPWFSAEVKFLIHRILDPNPKTRIQIQGIKKDPWFRLNYVPIRAREEEEVNLDDIRAVFDGIEGSYVAENVERNDEGPLMMNAFEMITLSQGLNLSALFDRRQDFVKRQTRFVSRREPSEIIANIEAVANSMGFKSHTRNFKTRLEGLSSIKAGQLAVVIEIYEVAPSLFMVDVRKAAGETLEYHKFYKKLCSKLENIIWRATEGIPKSEILRTITF [K40N]	decreasing interaction

Variants of: B1
Details: with vatb2_arath VHA-B2, Q9SZN1
Chain of vatb2_arath VHA-B2, Q9SZN1 (Q9SZN1 whole entry): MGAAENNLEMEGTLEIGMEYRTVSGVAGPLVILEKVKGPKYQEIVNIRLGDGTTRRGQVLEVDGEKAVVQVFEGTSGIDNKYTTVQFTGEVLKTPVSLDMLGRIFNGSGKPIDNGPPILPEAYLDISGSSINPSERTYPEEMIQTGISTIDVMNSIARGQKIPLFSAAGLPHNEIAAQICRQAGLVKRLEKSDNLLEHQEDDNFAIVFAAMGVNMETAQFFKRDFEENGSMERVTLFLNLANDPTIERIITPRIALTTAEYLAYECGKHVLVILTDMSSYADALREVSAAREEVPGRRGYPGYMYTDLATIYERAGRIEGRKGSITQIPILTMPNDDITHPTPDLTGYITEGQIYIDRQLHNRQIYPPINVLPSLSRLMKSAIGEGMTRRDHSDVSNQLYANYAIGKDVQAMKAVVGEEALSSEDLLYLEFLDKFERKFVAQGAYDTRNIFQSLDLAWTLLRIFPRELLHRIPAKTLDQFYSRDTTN

Variant	effect of a mutation on the interaction
MTKKMRRVGKYEVGRTIGEGTFAKVKFARNTDTGDNVAINIMAKSTILKNRMVDQIKREISIMKIVRHPNIVRLYEVLASPSKIYIVLEFVTGGELFDRIVHKGRLEESESRKYFQQLVDAVAHCHCKGVYHRDLKPENLLLDTNGNLKVSDFGLSALPQEGVELLRTTCGTPNYVAPEVLSGQGYDGSAADIWSCGVILFVILAGYLPFSETDLPGLYRKINAAEFSCPPWFSAEVKFLIHRILDPNPKTRIQIQGIKKDPWFRLNYVPIRAREEEEVNLDDIRAVFDGIEGSYVAENVERNDEGPLMMNAFEMITLSQGLNLSALFDRRQDFVKRQTRFVSRREPSEIIANIEAVANSMGFKSHTRNFKTRLEGLSSIKAGQLAVVIEIYEVAPSLFMVDVRKAAGETLEYHKFYKKLCSKLENIIWRATEGIPKSEILRTITF [K40N]	decreasing interaction
